The values below are quoted from earlier work in PMC11231610, “Fatty acid binding to the human transport proteins FABP3, FABP4, and FABP5 from a Ligand’s perspective” (The Journal of Biological Chemistry, 2024).

This data set concerns the target Cgi-58 (Mus musculus) (UniProt Q9DBL9). In words: MST.

Chain of FABP4 (P04117 2-132): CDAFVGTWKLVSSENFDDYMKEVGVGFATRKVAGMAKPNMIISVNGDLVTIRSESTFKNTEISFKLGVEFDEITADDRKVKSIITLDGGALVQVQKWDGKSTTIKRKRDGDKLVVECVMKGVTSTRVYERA
Chain of Cgi-58 (Mus musculus) (Q9DBL9 whole entry): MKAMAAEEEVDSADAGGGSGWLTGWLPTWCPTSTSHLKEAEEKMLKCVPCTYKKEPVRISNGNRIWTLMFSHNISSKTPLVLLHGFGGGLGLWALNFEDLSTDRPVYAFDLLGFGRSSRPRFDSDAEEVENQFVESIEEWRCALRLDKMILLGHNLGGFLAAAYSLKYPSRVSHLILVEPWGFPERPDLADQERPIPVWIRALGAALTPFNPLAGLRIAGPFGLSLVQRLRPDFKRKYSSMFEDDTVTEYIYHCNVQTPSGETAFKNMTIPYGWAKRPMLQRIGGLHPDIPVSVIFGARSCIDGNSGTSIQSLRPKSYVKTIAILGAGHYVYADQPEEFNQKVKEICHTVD

As a reminder, the Kd is the constant that tells how readily two partners part at equilibrium. For the substance FABP4 (from UniProt P04117), the equilibrium dissociation constant (Kd) was 192 µM.
